Reference: article PMC5906708, “Manipulation of Light Signal Transduction Factors as a Means of Modifying Steroidal Glycoalkaloids Accumulation in Tomato Leaves”

Columns and labels:
[1] = biological target: SlPIF3 (GST-PIF3) (Solanum lycopersicum, UniProt A0A3Q7EQR7 388-618); assay: EMSA; LightShift Chemiluminescent EMSA kit, 25 min at 22 C, 6% native PAGE; buffer, salt and pH not stated; settings: protein: recombinant, tags: GST (pGEX-4T-1), chain copies: 2, label: biotin
[2] = biological target: T1, SlHY5 (GST-HY5) (Solanum lycopersicum, UniProt Q9SM50 1-158); assay: as above; settings: protein: recombinant, tags: GST (pGEX-4T-1), chain copies: 2, label: biotin
T1 sequence: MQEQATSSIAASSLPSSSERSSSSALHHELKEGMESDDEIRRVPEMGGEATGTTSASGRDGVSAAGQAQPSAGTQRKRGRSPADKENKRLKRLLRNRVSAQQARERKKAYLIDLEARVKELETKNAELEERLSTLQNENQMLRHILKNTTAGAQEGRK

Chain of SlPIF3 (GST-PIF3) (A0A3Q7EQR7 entry or part of it): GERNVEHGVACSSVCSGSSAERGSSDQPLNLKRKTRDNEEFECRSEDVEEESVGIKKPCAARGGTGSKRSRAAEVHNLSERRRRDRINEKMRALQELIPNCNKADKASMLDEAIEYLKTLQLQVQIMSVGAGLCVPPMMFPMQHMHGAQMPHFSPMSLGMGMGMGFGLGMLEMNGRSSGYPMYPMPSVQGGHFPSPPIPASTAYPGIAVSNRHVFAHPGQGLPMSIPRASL

B1: GAME17 promoter G-box probe (dsDNA)
DNA 1: CGACATTTGATTGAATTTTAAATTTCACACGTGATACATAGATTGAGATT
DNA 2: AATCTCAATCTATGTATCACGTGTGAAATTTAAAATTCAATCAAATGTCG
Q: What does the source list for B1?
A: binding result [1]: binds; binding result [2]: binds

B2: GAME4 promoter G-box probe (dsDNA)
DNA 1: GTTGGGGGGCTAAATTATATTCACGTGATTGTATTTTTTTTTTTAATTGC
DNA 2: GCAATTAAAAAAAAAAATACAATCACGTGAATATAATTTAGCCCCCCAAC
Q: Does B2 bind [1]?
A: Result: binds

Q: Does B2 bind [2]?
A: Result: binds

B3: GAME2 probe (dsDNA)
DNA 1: ATCCCAAAAGAGTTGTTAGGTCGTGCACAAAACCCGTTTTCTGCGAAAAT
DNA 2: ATTTTCGCAGAAAACGGGTTTTGTGCACGACCTAACAACTCTTTTGGGAT
Q: Does B3 bind ([1]; blunt)?
A: Result: no binding

Q: Does B3 bind ([2]; blunt)?
A: Result: no binding

B4: GAME18 probe (dsDNA)
DNA 1: TGATACAACTAAAAGACATACGTTTAAAAAAGCAAATTGATCAAGTCGTTTG
DNA 2: CAAACGACTTGATCAATTTGCTTTTTTAAACGTATGTCTTTTAGTTGTATCA
Q: What does the source list for B4?
A: binding result ([1]; blunt): no binding; binding result ([2]; blunt): no binding

B5: GAME6 probe (dsDNA)
DNA 1: ATAATAACACCGTTTCTCTGCTTTAAGCGTGCTTTTTATCTCATAACTAAAAACT
DNA 2: AGTTTTTAGTTATGAGATAAAAAGCACGCTTAAAGCAGAGAAACGGTGTTATTAT
Q: Does B5 bind ([1]; blunt)?
A: Result: no binding

Q: Does B5 bind ([2]; blunt)?
A: Result: no binding

B6: GAME11 probe (dsDNA)
DNA 1: AAGTAAATTATAAATATACGTGACGAAAACGATCTTTAAAATTCTTTGTA
DNA 2: TACAAAGAATTTTAAAGATCGTTTTCGTCACGTATATTTATAATTTACTT
Q: Which results are given for B6?
A: binding result ([1]; blunt): no binding; binding result ([2]; blunt): no binding

B7: GAME1 promoter G-box probe (dsDNA)
DNA 1: GATTGCTTAAAGAGAGAATACCACGTGATGTCCCCCACACCACACCTGCT
DNA 2: AGCAGGTGTGGTGTGGGGGACATCACGTGGTATTCTCTCTTTAAGCAATC
Q: Does B7 bind [1]?
A: Result: binds

Q: Does B7 bind [2]?
A: Result: binds

B8: GAME12 probe (dsDNA)
DNA 1: GAAACGATATAATATACGTGATACAAGTTTATTAATAAATCAATGGCCCA
DNA 2: TGGGCCATTGATTTATTAATAAACTTGTATCACGTATATTATATCGTTTC
Q: Does B8 bind ([1]; blunt)?
A: Result: no binding

Q: Does B8 bind ([2]; blunt)?
A: Result: no binding
